Assay results taken from patent US11034762 (CENTIVAX, dated 2021).
Substitutions are numbered along the chain they refer to.

T1: MERS Receptor Binding Domain (RBD) protein (MERS virus, UniProt K9N5Q8 367-606)
T1 construct: also called Middle East Respiratory Syndrome (MERS) virus
T1 sequence: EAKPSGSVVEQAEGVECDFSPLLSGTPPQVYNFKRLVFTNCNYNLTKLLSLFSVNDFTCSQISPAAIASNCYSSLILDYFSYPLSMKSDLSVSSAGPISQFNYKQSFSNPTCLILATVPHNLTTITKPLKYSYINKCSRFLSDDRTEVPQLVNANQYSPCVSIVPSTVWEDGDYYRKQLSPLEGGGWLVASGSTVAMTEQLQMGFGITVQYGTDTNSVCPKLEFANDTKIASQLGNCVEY

B1: COVID19_P22_E12 (scFv, V domains shown)
VH: QVQLVQSGAEVKKPGSSVKVSCKASGGTFSSYAINWVRQAPGQGLEWMGGIIPVLHTVDYAQRLQGRVTITADESTSTAYMELSSLRSEDTAVYYCAGEWGISTPMDVWGQGTLVTVSS
VL: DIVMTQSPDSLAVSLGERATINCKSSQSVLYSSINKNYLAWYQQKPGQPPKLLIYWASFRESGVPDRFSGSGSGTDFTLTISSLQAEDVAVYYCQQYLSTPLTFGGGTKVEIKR
B2: COVID19_P10_D08 (scFv, V domains shown)
VH: QVQLVQSGAEVKKPGSSVKVSCKASGGTFNSHAISWVRQAPGQGLEWMGWINPNSGATNYAQKFQGRVTITADESTSTAYMELSSLRSEDTAVYYCAGGSGISTPVGVWGQGTLVTVSS
VL: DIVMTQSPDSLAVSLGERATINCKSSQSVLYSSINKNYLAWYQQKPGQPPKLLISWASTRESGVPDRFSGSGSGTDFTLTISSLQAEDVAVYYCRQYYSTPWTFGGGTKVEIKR
B3: COVID19_P10_G03 (scFv, V domains shown)
VH: B2 VH with N30S, S31N, H32S, A33S, S35N, W50R, A57G, V106M, G107D
VL: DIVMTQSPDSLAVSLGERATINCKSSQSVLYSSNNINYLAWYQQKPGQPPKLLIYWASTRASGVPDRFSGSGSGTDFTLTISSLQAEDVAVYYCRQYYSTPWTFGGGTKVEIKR
B4: COVID19_P09_H09 (scFv, V domains shown)
VH: QVQLVQSGAEVKKPGSSVKVSCKASGGTFITYWIYWVRQAPGQGLEWMGIIYPGDGEARYSQKFYGRVTITADESTSTAYMELSSLRSEDTAVYYCAGSGGISTPMDVWGQGTLVTVSS
VL: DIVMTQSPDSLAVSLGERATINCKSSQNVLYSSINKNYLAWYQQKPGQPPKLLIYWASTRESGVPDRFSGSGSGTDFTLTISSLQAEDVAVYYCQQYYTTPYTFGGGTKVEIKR
B5: COVID19_P22_E06 (scFv, V domains shown)
VH: B4 VH with T28G, Y35G, G56S, A58T, Y65Q, S99G, G100S, T104S, P105D
VL: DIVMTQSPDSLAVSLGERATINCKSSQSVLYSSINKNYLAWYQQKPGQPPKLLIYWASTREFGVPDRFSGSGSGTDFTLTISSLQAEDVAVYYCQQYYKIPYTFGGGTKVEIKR
B6: COVID19_P09_G02 (scFv, V domains shown)
VH: QVQLVQSGAEVKKPGSSVKVSCKASGGTFSSYAISWVRQAPGQGLEWMGIIYPGDSTTNYSQKFQGRVTITADESTSTAYMELSSLRSEDTAVYYCAGHWGISTPMDVWGQGTLVTVSS
VL: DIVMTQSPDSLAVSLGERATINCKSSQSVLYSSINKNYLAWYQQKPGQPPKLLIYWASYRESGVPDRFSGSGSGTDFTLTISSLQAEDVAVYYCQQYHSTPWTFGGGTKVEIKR
B7: COVID19_P09_C09 (scFv, V domains shown)
VH: B6 VH with Y52D, G54S, D55G, S56G, T57S, N59S, S61A, K63Q, H99G, W100S
VL: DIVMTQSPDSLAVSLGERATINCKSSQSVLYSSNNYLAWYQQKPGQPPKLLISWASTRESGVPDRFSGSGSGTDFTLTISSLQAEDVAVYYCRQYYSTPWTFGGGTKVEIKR
B8: COVID19_P09_E11 (scFv, V domains shown)
VH: B6 VH with S31N, Y32H, P41Y, S56G, N59R, H99G, W100S
VL: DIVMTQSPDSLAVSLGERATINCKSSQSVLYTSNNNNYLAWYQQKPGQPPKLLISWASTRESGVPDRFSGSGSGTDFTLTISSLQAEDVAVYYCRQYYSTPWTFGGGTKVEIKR
B9: COVID19_P21_F11 (scFv, V domains shown)
VH: B6 VH with T58A, N59R, H99G, W100S, P105L, M106Y
VL: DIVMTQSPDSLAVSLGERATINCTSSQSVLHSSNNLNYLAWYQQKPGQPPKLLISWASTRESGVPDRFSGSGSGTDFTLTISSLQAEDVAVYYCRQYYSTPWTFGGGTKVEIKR
B10: COVID19_P09_H08 (scFv, V domains shown)
VH: B6 VH with I50G, Y52I, G54I, D55F, S56G, S61A, H99E
VL: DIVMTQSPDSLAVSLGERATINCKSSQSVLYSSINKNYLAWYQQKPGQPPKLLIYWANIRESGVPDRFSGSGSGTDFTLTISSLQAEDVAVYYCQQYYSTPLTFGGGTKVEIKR
B11: COVID19_P09_B07 (scFv, V domains shown)
VH: B1 VH with N35S, V54T, H56G, V58A, D59N, R63K, L64F, E99S
VL: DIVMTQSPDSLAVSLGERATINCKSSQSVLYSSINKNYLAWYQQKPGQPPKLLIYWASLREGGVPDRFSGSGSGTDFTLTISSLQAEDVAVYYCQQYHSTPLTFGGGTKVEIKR
B12: COVID19_P09_E05 (scFv, V domains shown)
VH: B6 VH with N59R, A97Y, G98S, H99G, W100S
VL: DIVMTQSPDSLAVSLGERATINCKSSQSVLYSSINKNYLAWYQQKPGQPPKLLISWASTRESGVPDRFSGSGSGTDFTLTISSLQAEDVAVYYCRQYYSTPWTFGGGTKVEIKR
B13: COVID19_P22_F07 (scFv, V domains shown)
VH: QVQLVQSGAEVKKPGSSVKVSCKASGGTFSSYAISWVRQAPGQGLEWMGGIIPIFGSTASYAQKFQGRVTITADESTSTAYMELSSLRSEDTAVYYCAGEWGISTPMDVWGQGTLVTVSS
VL: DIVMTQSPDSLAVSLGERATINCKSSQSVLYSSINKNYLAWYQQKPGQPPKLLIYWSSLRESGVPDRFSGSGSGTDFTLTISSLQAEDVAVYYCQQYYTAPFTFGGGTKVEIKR

Experiments:
[1] = target: T2, SARS-CoV-1 Receptor Binding Domain (RBD) protein (SARS-CoV-1, UniProt P59594 306-527); assay: SPR; clone listed as COV2 only at the 21st table, row 22, column 3
T2 construct: also called SARS1

[2] = target: T1, MERS Receptor Binding Domain (RBD) …; assay: as above
[3] = target: SARS-CoV-2 Receptor Binding Domain (RBD) protein (SARS-CoV-2, UniProt P0DTC2 319-541)
[4] = target: T2, SARS-CoV-1 Receptor Binding Domain …; assay: SPR; clone listed as COV2 only at the 21st table, row 17, column 3
[5] = target: T1, MERS Receptor Binding Domain (RBD) …; assay: as above
[6] = target: T2, SARS-CoV-1 Receptor Binding Domain …; assay: SPR; clone listed as COV2 only at the 21st table, row 21, column 3
[7] = target: T1, MERS Receptor Binding Domain (RBD) …; assay: as above
[8] = target: T2, SARS-CoV-1 Receptor Binding Domain …; assay: SPR; clone listed as COV2 only at the 21st table, row 16, column 3
[9] = target: T1, MERS Receptor Binding Domain (RBD) …; assay: as above
[10] = target: T2, SARS-CoV-1 Receptor Binding Domain …; assay: SPR; clone listed as COV2 only at the 21st table, row 7, column 3
[11] = target: T1, MERS Receptor Binding Domain (RBD) …; assay: as above
[12] = target: T2, SARS-CoV-1 Receptor Binding Domain …; assay: SPR; clone listed as COV2 only at the 21st table, row 28, column 3
[13] = target: T1, MERS Receptor Binding Domain (RBD) …; assay: as above
[14] = target: T2, SARS-CoV-1 Receptor Binding Domain …; assay: SPR; clone listed as COV2 only at the 21st table, row 26, column 3
[15] = target: T1, MERS Receptor Binding Domain (RBD) …; assay: as above
[16] = target: T2, SARS-CoV-1 Receptor Binding Domain …; assay: SPR; clone listed as COV2 only at the 21st table, row 19, column 3
[17] = target: T1, MERS Receptor Binding Domain (RBD) …; assay: as above
[18] = target: T2, SARS-CoV-1 Receptor Binding Domain …; assay: SPR; clone listed as COV2 only at the 21st table, row 27, column 3
[19] = target: T1, MERS Receptor Binding Domain (RBD) …; assay: as above
[20] = target: T2, SARS-CoV-1 Receptor Binding Domain …; assay: SPR; clone listed as COV2 only at the 21st table, row 24, column 3
[21] = target: T1, MERS Receptor Binding Domain (RBD) …; assay: as above
[22] = target: T2, SARS-CoV-1 Receptor Binding Domain …; assay: SPR; clone listed as COV2 only at the 21st table, row 25, column 3
[23] = target: T1, MERS Receptor Binding Domain (RBD) …; assay: as above
[24] = target: T2, SARS-CoV-1 Receptor Binding Domain …; assay: SPR; clone listed as COV2 only at the 21st table, row 29, column 3
[25] = target: T1, MERS Receptor Binding Domain (RBD) …; assay: as above
[26] = target: T2, SARS-CoV-1 Receptor Binding Domain …; assay: SPR; clone listed as COV2 only at the 21st table, row 23, column 3
[27] = target: T1, MERS Receptor Binding Domain (RBD) …; assay: as above

| Binder | Kd [3] | koff [3] | kon [3] | other results |
| --- | --- | --- | --- | --- |
| B1 | 44 nM | 0.0089 s⁻¹ | 200000 M⁻¹ s⁻¹ | binding result [1]: no binding (tested: up to 300 nM); binding result [2]: no binding (tested: up to 300 nM) |
| B2 | 15.2 nM | 0.00107 s⁻¹ | 70700 M⁻¹ s⁻¹ | binding result [4]: no binding (tested: up to 300 nM); binding result [5]: no binding (tested: up to 300 nM) |
| B3 | 40.4 nM | 0.00177 s⁻¹ | 43800 M⁻¹ s⁻¹ | binding result [6]: no binding (tested: up to 300 nM); binding result [7]: no binding (tested: up to 300 nM) |
| B4 | 35.2 nM | 0.0154 s⁻¹ | 438000 M⁻¹ s⁻¹ | binding result [8]: no binding (tested: up to 300 nM); binding result [9]: no binding (tested: up to 300 nM) |
| B5 | 42.7 nM | 0.0057 s⁻¹ | 130000 M⁻¹ s⁻¹ | binding result [10]: no binding (tested: up to 300 nM); binding result [11]: no binding (tested: up to 300 nM) |
| B6 | 1.92 nM | 0.000262 s⁻¹ | 136000 M⁻¹ s⁻¹ | binding result [12]: no binding (tested: up to 300 nM); binding result [13]: no binding (tested: up to 300 nM) |
| B7 | 0.99 nM | 0.000261 s⁻¹ | 264000 M⁻¹ s⁻¹ | binding result [14]: no binding (tested: up to 300 nM); binding result [15]: no binding (tested: up to 300 nM) |
| B8 | 0.49 nM | 0.000123 s⁻¹ | 249000 M⁻¹ s⁻¹ | binding result [16]: no binding (tested: up to 300 nM); binding result [17]: no binding (tested: up to 300 nM) |
| B9 | ≤ 1.1 nM | ≤ 5.7e-05 s⁻¹ | 52300 M⁻¹ s⁻¹ | binding result [18]: no binding (tested: up to 300 nM); binding result [19]: no binding (tested: up to 300 nM) |
| B10 | 3.25 nM | 0.00039 s⁻¹ | 120000 M⁻¹ s⁻¹ | binding result [20]: no binding (tested: up to 300 nM); binding result [21]: no binding (tested: up to 300 nM) |
| B11 | 3.66 nM | 0.000533 s⁻¹ | 146000 M⁻¹ s⁻¹ | binding result [22]: no binding (tested: up to 300 nM); binding result [23]: no binding (tested: up to 300 nM) |
| B12 | 0.2 nM | 5.7e-05 s⁻¹ | 305000 M⁻¹ s⁻¹ | binding result [24]: no binding (tested: up to 300 nM); binding result [25]: no binding (tested: up to 300 nM) |
| B13 | 6.58 nM | 0.00041 s⁻¹ | 63000 M⁻¹ s⁻¹ | binding result [26]: no binding (tested: up to 300 nM); binding result [27]: no binding (tested: up to 300 nM) |
